Results: patent publication US20240425583A1, “METHODS AND COMPOSITIONS RELATED TO MCL-1 AND BIM HETERODIMER ANTIBODIES” (priority 2021, published 2024)
One block for each molecule: values may come before it.

Key:
[1] = molecular target: T1, covalent Mcl-1-Bim complex (Homo sapiens, UniProt Q07820); test: Flow cytometry detection of covalent Mcl-1-Bim complex immobilized on GSH beads; format: binding; settings: directly labeled and secondary antibody detection, FIG. 12
T1 construct: mutated to delete their transmembrane domains; made in house; host or cells: E. coli BL21 (D3) for the Mcl-1 fusion; peptide UV-crosslinked to it
T1 sequence (Q07820 1-327): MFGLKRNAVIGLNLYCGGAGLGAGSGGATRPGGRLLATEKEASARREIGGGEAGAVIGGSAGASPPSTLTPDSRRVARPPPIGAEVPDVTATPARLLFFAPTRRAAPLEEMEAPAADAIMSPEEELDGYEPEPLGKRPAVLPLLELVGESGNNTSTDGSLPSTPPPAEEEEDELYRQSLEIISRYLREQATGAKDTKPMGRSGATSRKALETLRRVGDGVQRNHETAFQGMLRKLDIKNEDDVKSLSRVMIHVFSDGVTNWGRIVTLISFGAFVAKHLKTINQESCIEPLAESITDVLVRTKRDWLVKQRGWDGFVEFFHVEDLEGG
T1 sequence (O43521 146-166 partner): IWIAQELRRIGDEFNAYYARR
Excerpt: In the experiments on the left side of the graph for HSMCB (i.e., the first two columns from the left on the graph), the HSMCB antibody is an antibody having CDRs selected from SEQ ID NO: 1, SEQ ID NO: 2, SEQ ID NO: 3, SEQ ID NO: 4, SEQ ID NO: 5, SEQ ID NO: 6, and having a variable heavy chain selected from SEQ ID NO: 7, and a variable light chain selected from SEQ ID NO: 8. In the next experiment near the middle of the graph for HSMCB (i.e., the second set of two columns in the middle on the graph), the antibody is an antibody having CDRs selected from SEQ ID NO: 9, SEQ ID NO: 10, SEQ ID NO: 11, SEQ ID NO: 12, SEQ ID NO: 13, SEQ ID NO: 14, and having a variable heavy chain selected from SEQ ID NO: 15, and a variable light chain selected from SEQ ID NO: 16. The antibody reactive with BcL-XL-Bim is used as a negative control, and Mcl1 (which recognizes both Mcl-1 monomer and Mcl-1-Bim complex) is used as a positive control. The signals using a directly labeled primary antibody (i.e., the first column in each set of two columns throughout the graph) and a secondary antibody detection system (i.e., the second column in each set of two columns throughout the graph) are shown.
AML patient samples were BH3 profiled in the experiments of this example. […] Patient samples were fixed, permeabilized, stained with HSMCB and anti-Mcl-1 antibody, and measured by flow cytometry. […]

[2] = molecular target: T2, Mcl-1 Bim-BH3 complex (Homo sapiens, UniProt Q07820); test: HSMCB on Mcl-1-Bim non-covalently bound beads; format: binding; settings: Bim-BH3 10 uM to 50 uM, FIG. 14
T2 construct: mutated to delete their transmembrane domains; made in house; host or cells: E. coli BL21 (D3)
T2 sequence (Q07820 1-327 limits assumed): as the sequence (Q07820 1-327) above

[3] = test system: FFPE breast cancer patient biopsy (BCa_01 NV401); test: IHC staining of serial sections from a FFPE breast cancer patient biopsy; parameters: species or system human; settings: compared with HSBXB, 10× objective, FIG. 8
Excerpt: The image on the left side of FIG. 8 is of an HSMCB antibody having CDRs selected from SEQ ID NO: 9, SEQ ID NO: 10, SEQ ID NO: 11, SEQ ID NO: 12, SEQ ID NO: 13, SEQ ID NO: 14, and having a variable heavy chain selected from SEQ ID NO: 15, and a variable light chain selected from SEQ ID NO: 16.
In these experiments, PDX stains were used for image analysis software from Leica and Halo were compared for quantitative analysis.

[4] = format: physicochemical
Experimental: FIG. 2 is a graph showing the selective binding of the MCL-1/BIM heterodimer (HSMCB) antibody to the MCL-1/BIM heterodimer, and the stability of this antibody at 4° C. for about 2 months. Each line in the graph follows the order in the legend (i.e., the top line is for sample 5-01-20b, the next line is for 5-22-20b, the next line is for 5-29b; this pattern is throughout the entire graph). The antibody in this figure is an antibody having CDRs selected from SEQ ID NO: 9, SEQ ID NO: 10, SEQ ID NO: 11, SEQ ID NO: 12, SEQ ID NO: 13, SEQ ID NO: 14, and having a variable heavy chain selected from SEQ ID NO: 15, and a variable light chain selected from SEQ ID NO: 16. […]

Mcl-1-Bim bead detection [1]: demonstrated
B1: HSMCB (SEQ ID NO: 7, SEQ ID NO: 8): MCL-1/BIM heterodimer antibody, CDRs SEQ ID NO: 1-6, variable heavy chain SEQ ID NO: 7, variable light chain SEQ ID NO: 8 (antibody, V domains shown)
VH: MNFGLSLIFLVLVLKGVQCEVQLVESGGDLVKPGGSLKLSCAVSGFTFSSYAMSWVRQTPAKRLEWVATISSGGFATYYPDTVKGRFTISRDNAKNTLYLQMSSLRSEDTAMYYCARHGGGSYGWFAYWGQGTLVTVSE
VL: MLSLAPLLSLLLLCVSDSRAETTVTQSPASLSVATGEKVTIRCITSTDIDDDMNWYQQKPGEPPKLLISEGNTLRPGVPSRFSSSGYGTDFVFTIENTLSEDFADYYCLQSDNMPYTFGGGTKLEIK
recognition of Mcl-1 Bim-BH3 complex on beads [2]: recognize the Mcl-1 Bim-BH3 complex at a significant level

Mcl-1-Bim bead detection [1]: demonstrated
B2: HSMCB (SEQ ID NO: 15, SEQ ID NO: 16): MCL-1/BIM heterodimer antibody, CDRs SEQ ID NO: 9-14, variable heavy chain SEQ ID NO: 15, variable light chain SEQ ID NO: 16 (antibody, V domains shown)
VH: MDWIWIMLHLLAAATGLQSQVHLQQSGSELRSPGSSVKLSCKDFDSEVFPIAYMSWVRQKPGHGFEWIGDILPSIGRTIYGEKFEDKATLDADTVSNTAYLELNSLTSEDSAIYYCARQDTYYAMDYWGQGTSVTVSS
VL: MHFQVQIFSFLLISASVIMSRGQIVLTQSPAIMSASPGEKVTITCSASSSVSYMHWVQQKPGTSPKLWIYSTSNLASGVPARFRGSGSGTSYSLTISRMEAEDAATYYCQQRSSYPYTFGGGTKLEIK
IHC reactivity with tissue sample [3]: higher reactivity | stability of the antibody at 4° C. [4]: about 2 months
